The source of these data is publication PMC4780012, “SmMYC2a and SmMYC2b played similar but irreplaceable roles in regulating the biosynthesis of tanshinones and phenolic acids in Salvia miltiorrhiza”.

The target in one series is SmMYC2a-His (Salvia miltiorrhiza, UniProt A0A088SC56 1-602). In words: EMSA; EMSA: 2 ug purified protein with 2 ug 3'-biotin probe, room temperature, 10 min; buffer, salt and pH not stated. The conditions noted are these: protein: recombinant; tags: His (text: C-terminal, cleavable; pET32a vector, BamHI/HindIII); chain copies: 2; label: 3' biotin; blunt. On the technique in general: A gel shift assay detects complexes by their altered migration in electrophoresis.

Another series deals with SmMYC2b-His (Salvia miltiorrhiza, UniProt UPI0025AD73A7 1-607). The series is described as above. The conditions noted are these: protein: recombinant; tags: His (text: C-terminal, cleavable; pET32a vector, EcoRV/SalI); chain copies: 2; label: 3' biotin; blunt.
Chain of SmMYC2b-His (chain, as listed by the source): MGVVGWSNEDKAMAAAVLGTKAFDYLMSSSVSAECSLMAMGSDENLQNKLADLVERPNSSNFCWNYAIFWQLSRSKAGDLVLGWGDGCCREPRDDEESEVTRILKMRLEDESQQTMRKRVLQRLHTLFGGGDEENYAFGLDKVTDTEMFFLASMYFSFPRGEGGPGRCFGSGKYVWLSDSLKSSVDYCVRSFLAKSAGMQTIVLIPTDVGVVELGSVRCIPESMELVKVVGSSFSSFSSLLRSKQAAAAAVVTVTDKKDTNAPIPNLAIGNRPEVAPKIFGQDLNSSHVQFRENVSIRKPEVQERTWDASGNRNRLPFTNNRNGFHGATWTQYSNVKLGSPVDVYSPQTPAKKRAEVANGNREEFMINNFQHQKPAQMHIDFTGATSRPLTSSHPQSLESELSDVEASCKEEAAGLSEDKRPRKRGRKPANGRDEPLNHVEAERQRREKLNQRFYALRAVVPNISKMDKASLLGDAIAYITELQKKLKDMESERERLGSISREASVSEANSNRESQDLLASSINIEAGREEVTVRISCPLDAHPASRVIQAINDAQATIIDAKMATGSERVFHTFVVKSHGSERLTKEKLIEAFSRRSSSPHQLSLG

Chain of SmMYC2a-His (A0A088SC56 entry or part of it): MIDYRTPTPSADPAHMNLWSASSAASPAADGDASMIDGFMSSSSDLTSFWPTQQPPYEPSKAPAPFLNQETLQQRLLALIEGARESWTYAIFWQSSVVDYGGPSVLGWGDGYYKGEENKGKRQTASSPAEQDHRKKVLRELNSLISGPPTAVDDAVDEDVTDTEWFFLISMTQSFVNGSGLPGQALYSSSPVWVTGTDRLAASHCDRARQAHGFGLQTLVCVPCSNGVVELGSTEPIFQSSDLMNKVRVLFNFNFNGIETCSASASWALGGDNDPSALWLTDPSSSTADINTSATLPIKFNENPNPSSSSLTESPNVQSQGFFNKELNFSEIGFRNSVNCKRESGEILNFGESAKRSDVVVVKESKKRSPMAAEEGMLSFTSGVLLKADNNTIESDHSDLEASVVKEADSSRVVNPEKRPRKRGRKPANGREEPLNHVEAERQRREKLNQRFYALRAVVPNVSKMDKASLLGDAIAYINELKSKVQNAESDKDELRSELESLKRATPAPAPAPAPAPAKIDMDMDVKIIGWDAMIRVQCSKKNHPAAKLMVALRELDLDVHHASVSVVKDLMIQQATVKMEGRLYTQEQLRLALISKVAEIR

B1: m-HCT6 (dsDNA)
DNA 1: AAGCCTAAAGCTTTTTTTGCTGCTAAACCT
DNA 2: AGGTTTAGCAGCAAAAAAAGCTTTAGGCTT
As to B1, the binding result with SmMYC2a-His was “no binding”.

B2: Wild-type CYP98A14 (dsDNA)
DNA 1: ATTAGTGATTAACACGTGCACATTTATTAA
DNA 2: TTAATAAATGTGCACGTGTTAATCACTAAT
As to B2, the binding result with SmMYC2b-His and with SmMYC2a-His was “binds” throughout.

B3: Wild-type HCT6 (dsDNA)
DNA 1: AAGCCTAAAGCTCACATGGCTGCTAAACCT
DNA 2: AGGTTTAGCAGCCATGTGAGCTTTAGGCTT
With B3, the binding result with SmMYC2a-His is “binds”.
